Data reported in paper PMC7959530.

Molecular target: asialofetuin (UniProt P12763)
Experiment: ELISA

Chain of UniProt P12763 (P12763 19-359): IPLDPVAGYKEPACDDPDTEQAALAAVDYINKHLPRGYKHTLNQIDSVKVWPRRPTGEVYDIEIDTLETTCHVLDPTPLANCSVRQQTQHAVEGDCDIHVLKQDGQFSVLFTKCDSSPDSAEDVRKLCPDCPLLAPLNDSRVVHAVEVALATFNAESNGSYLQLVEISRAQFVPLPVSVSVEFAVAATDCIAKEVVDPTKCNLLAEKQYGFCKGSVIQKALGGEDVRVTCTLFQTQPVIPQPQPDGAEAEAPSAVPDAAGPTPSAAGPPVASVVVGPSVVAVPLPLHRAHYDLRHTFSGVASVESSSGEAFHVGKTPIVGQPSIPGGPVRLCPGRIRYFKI

With “PX-Gal3_(Δ116) (fusion protein of APEX2 and galectin-3 lacking the N-terminal domain) (domain or fragment)” the EC50 was 0.14 µM.
